Data on seven molecules can be found in US20210261641A1 (Novo Nordisk, published 2021).

The term IC50 denotes the concentration that gives 50% inhibition. A low value points to higher potency.

Sequences and labels used below:
B1: GLP-1 anti TfR-Fab conjugate (compound of Example 15 / FIG. 15) (other)
light: DIQMTQSPASLSASLEEIVTITCQASQDIGNWLAWYQQKPGKSPQLLIYGATSLADGVPSRFSGSRSGTQFSLKISRVQVEDIGIYYCLQAYNTPWTFGGGTKLELKRTVAAPSVFIFPPSDEQLKSGTASVVCLLNNFYPREAKVQWKVDNALQSGNSQESVTEQDSKDSTYSLSSTLTLSKADYEKHKVYACEVTHQGLSSPVTKSFNRGEC
heavy: EVQLVESGGGLVQPGNSLTLSCVASGFTFSNYGMHWIRQAPKKGLEWIAMIYYDSSKMNYADTVKGRFTISRDNSKNTLYLEMNSLRSEDTAMYYCAVPTSHYVVDVWGQGVSVTVSSASTKGPSVFPLAPCSRSTSESTAALGCLVKDYFPEPVTVSWNSGCLTSGVHTFPAVLQSSGLYSLSSVVTVPSSSLGTKTYTCNVDHKPSNTKVDKRVESK
peptide: HGEGTFTSDVSSYLEEQAAREFIAWLVRGKG
modifications: epsilon amino group of Lys at position 36 (GLP-1(7-37) numbering) carries the linker -Ado-gGlu-Ado-, joined via -CH2-C(O)- to Cys 377 of the Fab; thiol of Cys 377 (numbering of FIG. 15 / SEQ ID NO: 3) linked via Chem. 2 -CH2-C(O)-Ado-gGlu-Ado- to the GLP-1 analogue
B2: GLP-1 control Fab conjugate (compound of Example 14 / FIG. 14) (other)
light: DIVMTQTPLSLSVTPGQPASISCRSSQSLLHSNGNTYLHWYLQKPGQSPQLLIYKVSNRFSGVPDRFSGSGSGTDFTLKISRVEAEDVGVYYCSQSTHVPWTFGQGTKVEIKRTVAAPSVFIFPPSDEQLKSGTASVVCLLNNFYPREAKVQWKVDNALQSGNSQESVTEQDSKDSTYSLSSTLTLSKADYEKHKVYACEVTHQGLSSPVTKSFNRGEC
heavy: B1 heavy
peptide: B1 peptide
modifications: epsilon amino group of Lys at position 36 (GLP-1(7-37) numbering) carries the linker -Ado-gGlu-Ado-, joined via -CH2-C(O)- to Cys 382 of the Fab; thiol of Cys 382 (numbering of FIG. 14 / SEQ ID NO: 5) linked via Chem. 2 -CH2-C(O)-Ado-gGlu-Ado- to the GLP-1 analogue
B3: GLP-1 anti TNP-Fab fusion protein (compound of Example 5 / FIG. 5, SEQ ID NO: 8) (other)
light: HGEGTFTSDVSSYLEEQAAREFIAWLVKGRPGGGSGGGSGGGSGGGSDIVMTQTPLSLSVTPGQPASISCRSSQSLLHSNGNTYLHWYLQKPGQSPQLLIYKVSNRFSGVPDRFSGSGSGTDFTLKISRVEAEDVGVYYCSQSTHVPWTFGQGTKVEIKRTVAAPSVFIFPPSDEQLKSGTASVVCLLNNFYPREAKVQWKVDNALQSGNSQESVTEQDSKDSTYSLSSTLTLSKADYEKHKVYACEVTHQGLSSPVTKSFNRGEC
heavy: QVQLQESGPGLVKPSETLSLTCTVSGGSISSGYWNWIRQPPGKGLEWIGTISYSGDTYYNPSLKSRVTISVDTSKNQFSLKLSSVTAADTAVYYCARYGSYVFDYWGQGTTVTVSSASTKGPSVFPLAPCSRSTSESTAALGCLVKDYFPEPVTVSWNSGALTSGVHTFPAVLQSSGLYSLSSVVTVPSSSLGTKTYTCNVDHKPSNTKVDKRVESKHHHHHHHHHH
modifications: N-terminal residue found as pyroglutamic acid in the purified protein
notes: Two-chain Fab fusion; also called GLP-1-(GGGS)4-aTNP light chain + aTNP-(His)10 heavy chain
B4: GLP-1 control Fab fusion protein (compound of Example 7 / FIG. 7, SEQ ID NO: 12) (other)
light: B3 light
heavy: EVQLVESGGGLVQPGNSLTLSCVASGFTFSNYGMHWIRQAPKKGLEWIAMIYYDSSKMNYADTVKGRFTISRDNSKNTLYLEMNSLRSEDTAMYYCAVPTSHYVVDVWGQGVSVTVSSAKTTPPSVYPLAPGSAAQTNSMVTLGCLVKGYFPEPVTVTWNSGSLSSGVHTFPAVLQSDLYTLSSSVTVPSSTWPSETVTCNVAHPASSTKVDKKIVPRDCGHHHHHHHHHH
notes: Hybrid of the anti-TNP light chain fusion and the anti-TfR heavy chain; also called hybrid construct
B5: Vivotag 750 labelled GLP-1 control Fab fusion protein (compound of Example 9 / FIG. 9) (other)
light: B3 light
heavy: B4 heavy
modifications: VivoTag750 (NHS ester) randomly attached to amines; mixture of 0, 1, 2, 3 labels per molecule (average about 1)
notes: The label positions are not defined; also called fluorescence labelled GLP-1 control Fab fusion protein
B6: GLP-1 anti TfR-Fab fusion protein (compound of Example 6 / FIG. 6, SEQ ID NO: 11) (other)
light: HGEGTFTSDVSSYLEEQAAREFIAWLVKGRPGGGSGGGSGGGSGGGSDIQMTQSPASLSASLEEIVTITCQASQDIGNWLAWYQQKPGKSPQLLIYGATSLADGVPSRFSGSRSGTQFSLKISRVQVEDIGIYYCLQAYNTPWTFGGGTKLELKRADAAPTVSIFPPSSEQLTSGGASVVCFLNNFYPKDINVKWKIDGSERQNGVLNSWTDQDSKDSTYSMSSTLTLTKDEYERHNSYTCEATHKTSTSPIVKSFNRNEC
heavy: B4 heavy
notes: Two-chain Fab fusion; also called GLP-1-(GGGS)4-aTfR light chain + aTfR-(His)10 heavy chain
B7: Vivotag 750 labelled GLP-1 anti TfR-Fab fusion protein (compound of Example 8 / FIG. 8) (other)
light: B6 light
heavy: B4 heavy
modifications: VivoTag750 (NHS ester) randomly attached to amines; mixture of 0, 1, 2, 3 labels per molecule (average about 1)
notes: The label positions are not defined; also called GLP-1-Active TfR; fluorescence labelled GLP-1 anti TfR-Fab fusion protein

The target of one assay is T1, mouse transferrin receptor (mouse, UniProt Q62351 1-763).
T1 construct: whole, on cells; also called TfR
T1 sequence (Q62351 whole entry): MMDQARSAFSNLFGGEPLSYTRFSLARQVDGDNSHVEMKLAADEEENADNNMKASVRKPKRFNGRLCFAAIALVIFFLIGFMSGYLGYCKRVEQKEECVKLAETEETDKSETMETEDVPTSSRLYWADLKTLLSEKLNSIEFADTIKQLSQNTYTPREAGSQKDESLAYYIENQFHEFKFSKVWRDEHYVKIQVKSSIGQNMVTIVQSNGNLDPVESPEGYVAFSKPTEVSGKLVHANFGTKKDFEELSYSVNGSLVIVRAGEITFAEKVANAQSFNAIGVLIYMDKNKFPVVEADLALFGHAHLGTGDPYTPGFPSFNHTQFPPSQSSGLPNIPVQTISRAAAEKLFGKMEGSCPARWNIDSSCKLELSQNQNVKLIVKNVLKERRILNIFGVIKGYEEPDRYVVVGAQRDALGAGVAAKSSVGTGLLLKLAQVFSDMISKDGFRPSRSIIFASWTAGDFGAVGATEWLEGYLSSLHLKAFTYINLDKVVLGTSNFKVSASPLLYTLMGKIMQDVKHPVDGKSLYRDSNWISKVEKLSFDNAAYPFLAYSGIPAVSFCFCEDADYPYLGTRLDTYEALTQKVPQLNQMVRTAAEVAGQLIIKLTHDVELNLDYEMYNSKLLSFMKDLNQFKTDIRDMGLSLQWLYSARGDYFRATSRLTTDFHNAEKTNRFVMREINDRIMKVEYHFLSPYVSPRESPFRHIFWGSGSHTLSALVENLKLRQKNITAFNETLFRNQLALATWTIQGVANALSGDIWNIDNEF
Put plainly: inhibition of uptake of 5 nM Cy5-labelled anti TfR-Fab into MEF-1 cells (mouse TfR), high-content imaging. Here is the method:
The day before each assay the cells were plated out at 5000 cells/well. 2. On the assay day the cells were washed with HBSS containing 0.1% (w/v) HSA. 3. Test compounds were serially diluted to give the following concentrations: 2×10⁻⁶ M, 2×10⁻⁷ M, 2×10⁻⁸ M, 2×10⁻⁹ M, 2×10⁻¹° M, 2×10⁻¹¹ M, 2×10⁻¹² M and 2×10⁻¹³ M. 100 μl of each was added to appropriate wells in the assay plate. 4. To each of the wells the fluorescently-labelled Fab fragment was added to a final concentration of 5 nM. 5. The plates were incubated at 37° C. for 15 min. After incubation the buffer was removed and the cells were washed with HBSS containing 0.1% (w/v) HSA. 6. Fifty μl of cold 4% PFA was added in a fume hood. […] The assay plate was read in a high-content imaging instrument (IN Cell 2200 instrument, GE).
The data from the IN Cell instrument was analysed using the software that was supplied with the instrument. […] The amount of fluorescence that was internalised was calculated by defining granules visible in the Cy5 channel of the instrument and corresponded to internalised Cy5-labelled Fab fragment. The number and intensity of granules in each cell were calculated. The readout from the instrument that was used for further calculations was the total area of the granules divided by the number of cells in each acquisition field. […] IC50 values were calculated by the software and reported in nM.
Turning to B1, the IC50 stood at 17.4 nM.

In another assay the target is T2, human GLP-1 receptor (human, UniProt P43220 24-463). Put plainly: cell-based or functional assay.
B2: the “EC50/pM (0% HSA), in vitro potency, CRE luciferase reporter gene assay” value (“EC50/pM (0% HSA), in vitro potency” below) is 818 pM.
In the case of B1, the “EC50/pM (0% HSA), in vitro potency” value is 435 pM.
Regarding B3, the “EC50/pM (0% HSA), in vitro potency” value was determined as 267 pM.
Still for that read-out and setting: to B4 belongs 52.4 pM; to B5, 58.6 pM; to B6, 48.3 pM.
Turning to B7, the “EC50/pM (0% HSA), in vitro potency” value is 92.8 pM.

A further assay concerns the target T2, human GLP-1 receptor. Put plainly: displacement of [125I]-GLP-1(7-36)NH2 from BHK membranes with human GLP-1R, SPA, low HSA. Here is the method: 1. For the receptor binding assay in the presence of low HSA (0.001%) 50 μl of the assay buffer was added to each well of an assay plate. Assay continued with step 3. 2. For the receptor binding assay in the presence of high HSA (2.0%) 50 μl of the 8% albumin stock was added to each well of an assay plate. Assay continued with step 3. 3. Test compounds were serially diluted to give the following concentrations: 8×10⁻⁷ M, 8×10⁻⁸ M, 8×10⁻⁹ M, 8×10⁻¹° M, 8×10⁻¹¹ M, 8×10⁻¹² M and 8×10⁻¹³ M. Twenty-five μl were added to appropriate wells in the assay plate. 4. Cell membrane aliquots were thawed and diluted to their working concentration. Fifty μl were added to each well in the assay plate. 5. WGA SPA beads were suspended in assay buffer at 20 mg/ml. The suspension was diluted to 10 mg/ml in assay buffer just prior to addition to the assay plate. Fifty μl were added to each well in the assay plate. 6. The incubation was started by adding 25 μl of 480 pM solution of [¹²⁵I]-GLP-1]-(7-36) NH₂ to each well of the assay plate. A 25 μl aliquot was reserved for measuring total counts/well. 7. The assay plate was incubated for 2 h at 30° C. 8. The assay plate was centrifuged for 10 min. 9. The assay plate was read in a Packard TopCount NXT instrument.
The data from the TopCount instrument were transferred to GraphPad Prism software. The software averaged the values for the replicates and performed a non-linear regression. IC₅₀ values were calculated by the software and reported in nM.
A general note: In a radioligand displacement assay an active substance lowers the binding of a labelled ligand.
For B2, the IC50 stood at 55.9 nM.
On to B1, for which the IC50 was 32.5 nM.
B3 displayed an IC50 of 12.5 nM.
Molecule B4 yielded an IC50 of 2.39 nM.
As for B5, the IC50 came to 3.89 nM.
Same read-out and setting: the result for B6 reads 3.28 nM.
B7: the IC50 worked out at 9.61 nM.
